Residue numbers refer to the chain shown, from its start.
T1: hBCMA fragment Gly6-Tyr40 displayed on yeast (Aga2-HA-(hBCMA)-MYC) (human, UniProt Q02223 6-40)
T1 construct: range 6-40; not shown: Aga2-HA N-terminal fusion partner of the pPNL6 yeast display vector; C-terminal MYC tag
T1 chain (looked up): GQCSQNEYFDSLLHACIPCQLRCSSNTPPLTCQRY

T2: human BCMA on target cells (Raji, Ramos, Jeko-1, RPMI8226) (human, UniProt Q02223 1-184)
T2 construct: also called TNFRSF17; BCMA-positive target cells
T2 sequence: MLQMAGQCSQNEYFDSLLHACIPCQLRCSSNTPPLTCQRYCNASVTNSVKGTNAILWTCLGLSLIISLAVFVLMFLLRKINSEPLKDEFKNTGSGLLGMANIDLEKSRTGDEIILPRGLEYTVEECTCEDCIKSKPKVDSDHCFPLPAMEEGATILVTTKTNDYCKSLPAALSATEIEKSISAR

T3: BCMA_B7x Met1_Tyr40 (human, UniProt Q02223)
T3 construct: limits given in the sample name
T3 yeast-displayed fusion (looked up): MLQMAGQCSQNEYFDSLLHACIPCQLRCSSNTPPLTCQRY

T4: BCMA_B19x Arg27_Ala43 (human, UniProt Q02223)
T4 construct: limits given in the sample name
T4 yeast-displayed fusion (looked up): RCSSNTPPLTCQRYCNA

T5: hBCMA-ECD-FC5VHH (human, UniProt Q02223 1-54, biotinylated in vivo ; biotinylated in vivo on the tag of the carrier part, which is not in the letters)
T5 construct: Made in HEK-293 cells, monomeric SEC fraction; The methods say about 500 RU captured on an SA chip; the results say immobilised on a CM5 chip; also called hBCMA-FC5; human BCMA-ECD; not shown: FC5 VHH carrier, any linker, and the His and biotinylation tags
T5 sequence: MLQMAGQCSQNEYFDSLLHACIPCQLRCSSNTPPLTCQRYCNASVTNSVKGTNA

T6: BCMA_B6x Met1_Ala43 (human, UniProt Q02223)
T6 construct: limits given in the sample name
T6 yeast-displayed fusion (looked up): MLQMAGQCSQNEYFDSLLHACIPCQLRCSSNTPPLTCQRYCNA

T7: BCMA_B13x Gly6 (C8S)_Pro23 (human, UniProt Q02223)
T7 construct: limits and substitution as printed in the sample name
T7 yeast-displayed fusion (looked up): GQSSQNEYFDSLLHACIP

T8: hBCMA fragment Gly6-Pro23 displayed on yeast (Aga2-HA-(hBCMA)-MYC) (human, UniProt Q02223 6-23)
T8 construct: range 6-23; not shown: Aga2-HA N-terminal fusion partner of the pPNL6 yeast display vector; C-terminal MYC tag
T8 chain (looked up): GQCSQNEYFDSLLHACIP

T9: BCMA_B18x Ile22_Tyr40 (C37S) (human, UniProt Q02223)
T9 construct: limits and substitution as printed in the sample name
T9 yeast-displayed fusion (looked up): IPCQLRCSSNTPPLTSQRY

B1: hBCMA-E7 (VHH)
VHH: QVQLVESGGGLVQTGDSLRLACTISGRATDHFVMAWFRRAPGKEREYVATRVWSGGSPYYLDSVKGRFAIAIDNAKNTAYLQMNNLKPEDTAVYYCAATKDIMSRSYDYWGLGTQVTVSS
modifications: single biotin on the C-terminal AviTag
notes: Llama VHH made in E. coli BL21(DE3), IMAC purified, monomeric SEC fraction used; also called VHH-E7; VHH # 1-B1; not shown: C-terminal His tag and AviTag biotinylation signal from pMRO vector
B2: hBCMA-A6 (VHH)
VHH: QVQLVESGGGLVQPGGSLRLSCVASGSIFDAYNMGWYRQAPGKQRELVAAISSAGTTFYRDSVKGRFTVSRNNAKNTMYLQMDRLRPEDTAVYDCNGAPWGDAPVKVEDWGQGTQVTVSS
modifications: single biotin on the C-terminal AviTag
notes: also called VHH-A6; not shown: C-terminal His tag and AviTag biotinylation signal from pMRO vector
B3: hBCMA-VcMRo3 (V3) (VHH)
VHH: B1 VHH with Q1E, V5E, E6Q, A21T, S25P, T29S, D30N, Y47F, L61S, N85S
modifications: single biotin on the C-terminal AviTag
notes: also called hBCMA-V3; not shown: C-terminal His tag and AviTag biotinylation signal from pMRO vector
B4: hBCMA-H4 (VHH)
VHH: QVQLVESGGGLVQPGGSLRLSCAASGDSFGAYAMGWYRQAPGKQRELVAAISSAGNTFYRDSVKGRFTVSRNNAKNAMYLQMDRLKPEDTAVYQCNGAPWADEPVKVWNWGLGTQVTVSS
modifications: single biotin on the C-terminal AviTag
notes: also called VHH-H4; not shown: C-terminal His tag and AviTag biotinylation signal from pMRO vector
B5: hBCMA-VcMRo8(VF7/VF8) (VHH)
VHH: QVQLVESGGGLVQPGGSLRLSCAASGTIFSRNALAWFRQAPGKQRELVAHITIGGTTVYKDSVKGRFTISRDNAKNTVYLQMDALKPEDTAVYYCNADPEGSWNWVRRGDYWGQGTQVTVS
modifications: single biotin on the C-terminal AviTag
notes: also called V8; hBCMA-V8; not shown: C-terminal His tag and AviTag biotinylation signal from pMRO vector
B6: hBCMA-H2 (VHH)
VHH: QVKAEESGGGLVRPGDSLRLTCTISGRTSNNFVMAWFRRTPGKEREYVATRVWSGSTPYYHDSVKGRFTISIDDDKNTAYLQMNSLKPEDTAVYYCAATKDIMSRSYDYWGLGTQVTVSS
modifications: single biotin on the C-terminal AviTag
notes: also called VHH-H2; not shown: C-terminal His tag and AviTag biotinylation signal from pMRO vector

molecular target: T10, mBCMA-ECD-FC5VHH (mouse, UniProt O88472 1-49, biotinylated in vivo ; biotinylated in vivo on the tag of the carrier part, which is not in the letters); experiment: SPR (Biacore T200), VHH over mouse BCMA-ECD surface, 25 C
T10 construct: also called mouse BCMA; murine BCMA ECD; not shown: FC5 VHH carrier, any linker, and the His and biotinylation tags
T10 sequence (O88472 1-49 limits assumed): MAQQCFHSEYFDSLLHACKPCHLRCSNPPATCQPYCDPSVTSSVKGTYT

Kd | koff | kon | Binder
67.5 nM | 0.0514 s⁻¹ | 762000 M⁻¹ s⁻¹ | B1

Molecular target: T1, hBCMA fragment Gly6-Tyr40 displayed on …
Experiment: yeast cell ELISA, sample BCMA_B11x Gly6_Tyr40
Procedure: (§1) The YSD vector (pPNL6) was from The Pacific Northwest National Laboratory, USA. […] The HRP activity was assayed with substrate TMB (tetramethyl benzidine) according to the manufacture's conditions and read at OD₄₅₀.
(§2) The assays were performed as described in the Materials and Method, and OD₄₅₀ was measured. Note that OD₄₅₀ reads equal or less than 0.100 were scored as zero for clarity.

OD450 | Binder
2.44 | B2
2.74 | B3
3.57 | B1
2.42 | B4
2.61 | B5
3.5 | B6

molecular target: T2, human BCMA on target cells (Raji, …); experiment: flow cytometry on RPMI8226 cells (BCMA-high); VHH detected with AlexaFluor647 anti-VHH antibodies
Procedure: Purified VHH were used to assess the target specificity of the sdBCMA Ab by flow cytometry. The highly BCMA expressing human myeloma cell line RPM18226, the BCMA-low human Burkitt's lymphoma cell line Raji, and the BCMA-negative Jurkat human T cell leukemia cell line were incubated with 5 fold dilution of biotin labelled sdBCMA VHH from 7.5-0.06 μg/mL. The binding of the BCMA-targeted VHH to cell surface BCMA was detected by flow cytometry using a mixture of two broad reactivity mouse anti-VHH antibodies conjugated with AlexaFluor647.

EC50 (read off the curve) | Binder
~2 nM | B3
~0.9 nM | B1

Molecular target: T3, BCMA_B7x Met1_Tyr40
Experiment: yeast cell ELISA, sample BCMA_B7x Met1_Tyr40
Procedure: as §1, §2

OD450 | Binder
1.84 | B2
1.62 | B3
2.64 | B1
1.39 | B4
2.37 | B5
3.02 | B6

Molecular target: T4, BCMA_B19x Arg27_Ala43
Experiment: yeast cell ELISA, sample BCMA_B19x Arg27_Ala43
Procedure: as §1, §2

binding result | Binder
no binding | B2
no binding | B3
no binding | B1
no binding | B4
no binding | B5
no binding | B6

molecular target: T5, hBCMA-ECD-FC5VHH; experiment: SPR, 1:1 binding model
Procedure: For surface Plasmon resonance, 15 selected VHHs were passed though size exclusion columns, Superdex 75 (GE Healthcare), respectively, in 10 mM HEPES, pH 7.4, containing 150 mM NaCl, 3 mM EDTA, monomeric sdAb fractions were collected and protein concentrations were determined by measuring absorbance at 280 nm (A280). Analysis were performed with Biacore T200 instrument (GE Healthcare). All measurements were carried out at 25° C. in 10 mM HEPES, pH 7.4, containing 150 mM NaCl, 3 mM EDTA and 0.005% surfactant P20 (GE Healthcare). Approximately 500 RUs of the recombinant monomeric BCMA-ECD (obtained after SEC purification of the BCMA-ECD-FC5VHH) were captured on SA sensor chip (GE Healthcare) at a flow rate of 5 uL/min. Various concentration of the monomeric VHHs (20-500 nM) were injected over BCMA-ECD surface, respectively using an SA surface as a reference at a flow rate of 40 μL/min. Surfaces were generated by washing with running buffer. Data were analysed with BIAevaluation 4.1 software.
The monomeric fraction of all 15 VHHs were used for SPR experiment where the human BCMA-ECD or mouse BCMA was immobilized onto the CM5 dextran chip and various VHH concentration (20-500 nM) were passed over the sensor chip.

Kd | Binder
4 nM | B2
0.0462 nM | B1

Molecular target: T6, BCMA_B6x Met1_Ala43
Experiment: yeast cell ELISA, sample BCMA_B6x Met1_Ala43
Procedure: as §1, §2

OD450 | Binder
2.8 | B2
2.65 | B3
2.19 | B1
2.62 | B4
2.33 | B5
2.41 | B6

Molecular target: T7, BCMA_B13x Gly6 (C8S)_Pro23
Experiment: yeast cell ELISA, sample BCMA_B13x Gly6 (C8S)_Pro23
Procedure: as §1, §2

binding result | Binder
no binding | B2
no binding | B4
no binding | B5
no binding | B6

Molecular target: T8, hBCMA fragment Gly6-Pro23 displayed on …
Experiment: yeast cell ELISA, sample BCMA_B12x Gly6_Pro23
Procedure: as §1, §2

binding result | OD450 | Binder
no binding | – | B2
– | 2.08 | B3
– | 2.39 | B1
no binding | – | B4
no binding | – | B5
– | 2.82 | B6

Molecular target: T9, BCMA_B18x Ile22_Tyr40 (C37S)
Experiment: yeast cell ELISA, sample BCMA_B18x Ile22_Tyr40 (C37S)
Procedure: as §1, §2

binding result | Binder
no binding | B2
no binding | B3
no binding | B1
no binding | B4
no binding | B5
no binding | B6

Reference: patent publication US20250000976A1 (NATIONAL RESEARCH COUNCIL OF CANADA, published 2025)
